Measured values published in patent CN109734803A (ZONHON BIOPHARMA INST INC, dated 2019).

T1: 重组人MYO(大肠杆菌重组表达，本公司制备) (human, UniProt P02144 2-154)
T1 construct: The background describes myoglobin as one chain of 153 residues with a haem group; also called 重组MYO; 人肌红蛋白
T1 sequence (looked up): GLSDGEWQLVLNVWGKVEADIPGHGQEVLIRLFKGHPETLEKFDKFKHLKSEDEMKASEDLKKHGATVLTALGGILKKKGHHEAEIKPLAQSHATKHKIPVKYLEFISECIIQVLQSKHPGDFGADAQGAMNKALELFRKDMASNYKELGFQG

B1: 单链抗体M26 (scFv)
scFv: QVQLQQSGDDLVKPGASVKLSCKASGYTFTSYWINWIKQRPGQGLEWIGRIAPEGDSTYYNEMFKGKATLTVDTSSSTAYIQLSSLSSEDSAVYFCAREVRNAMDYWGQGTSVTVSSGGGGSGGGGSGGGGSDIQMNQSPSSLSASLGDTITITCHASQNIHVWLSWYLQKPGNITKLLIYEASNLHTGVPSRFSGSGSGTGFTLTISSLQPEDIATYYCQQGQRYPLTFGGGTKLEIK
notes: VH and VL of M26 joined by a (GGGGS)3 linker, expressed in E. coli and purified on HisTrap; HRP-labelled in the Western blot; coated on the T line of the nitrocellulose membrane in the test card; also called M26-scFv; M26-HRP; not shown: Histidine tag introduced downstream of the gene
B2: 单链抗体M08 (scFv)
scFv: QVQLQQSGAELAKPGASVKMSCKASGYTFTSYWMHWVKQRPGQGLEWIGYIKPNTDYTEYNQKFKDKATLTADKSSSTAYMQLSSLTSEDSAVYYCTRIRGYALDYWGQGTSVTVSSGGGGSGGGGSGGGGSDIVMTQSPSSLTVTAGEKVTMICKSSQSLLNSGNQKNYLTWYQQKPGQPPKLLIYWASTRESGVPDRFTGSGSGTDFTLTISSVQAEDLAVYYCQNDYNFPLTFGAGTKLELK
notes: VH and VL of M08 joined by a (GGGGS)3 linker, expressed in E. coli and purified on HisTrap; HRP-labelled in the Western blot; coupled to time-resolved fluorescent microspheres in the test card; also called M08-scFv; M08-HRP; not shown: Histidine tag introduced downstream of the gene
B3: 杂交瘤细胞株M08的抗人MYO抗体 (antibody, V domains shown)
VH: QVQLQQSGAELAKPGASVKMSCKASGYTFTSYWMHWVKQRPGQGLEWIGYIKPNTDYTEYNQKFKDKATLTADKSSSTAYMQLSSLTSEDSAVYYCTRIRGYALDYWGQGTSVTVSS
VL: DIVMTQSPSSLTVTAGEKVTMICKSSQSLLNSGNQKNYLTWYQQKPGQPPKLLIYWASTRESGVPDRFTGSGSGTDFTLTISSVQAEDLAVYYCQNDYNFPLTFGAGTKLELK
notes: Mouse hybridoma culture supernatant, detected with HRP goat anti-mouse IgG; also called 抗人肌红蛋白抗体(M08)
B4: 杂交瘤细胞株M26的抗人MYO抗体 (antibody, V domains shown)
VH: QVQLQQSGDDLVKPGASVKLSCKASGYTFTSYWINWIKQRPGQGLEWIGRIAPEGDSTYYNEMFKGKATLTVDTSSSTAYIQLSSLSSEDSAVYFCAREVRNAMDYWGQGTSVTVSS
VL: DIQMNQSPSSLSASLGDTITITCHASQNIHVWLSWYLQKPGNITKLLIYEASNLHTGVPSRFSGSGSGTGFTLTISSLQPEDIATYYCQQGQRYPLTFGGGTKLEIK
notes: Mouse hybridoma culture supernatant, detected with HRP goat anti-mouse IgG; also called 抗人肌红蛋白抗体(M26)

Tests used:
重组人MYO(大肠杆菌重组表达，本公司制备) [1] = molecular target: T1, 重组人MYO(大肠杆菌重组表达，本公司制备); experiment: Western blot, recombinant MYO on nitrocellulose, HRP-labelled M26 at 1:1000
重组人MYO(大肠杆菌重组表达，本公司制备) [2] = molecular target: T1, 重组人MYO(大肠杆菌重组表达，本公司制备); experiment: Western blot, recombinant MYO on nitrocellulose, HRP-labelled M08 at 1:1000
重组人MYO(大肠杆菌重组表达，本公司制备) [3] = molecular target: T1, 重组人MYO(大肠杆菌重组表达，本公司制备); experiment: indirect ELISA, recombinant human MYO coated at 1 μg/mL, hybridoma supernatant, HRP goat anti-mouse IgG

Row | Binder | binding result (重组人MYO(大肠杆菌重组表达，本公司制备) [3]) | further results
1 | B1 | – | binding result (重组人MYO(大肠杆菌重组表达，本公司制备) [1]): binds
2 | B2 | – | binding result (重组人MYO(大肠杆菌重组表达，本公司制备) [2]): binds
3 | B3 | binds | –
4 | B4 | binds | –
